# Test system: K4 kissing-loop RNA reporter
# Test: apparent KD of K4 kissing-loop reporter; higher = weaker reporter binding
# Settings: Eterna round: R107; input ligand: arginine 13.2 mM
# Method: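 RNA-MaP round R107: designed RNA switches with theophylline, tryptophan, arginine or FMN aptamers are transcribed on-chip within common flanks. They are titrated with a labelled K4 kissing-loop RNA reporter in RNA-MaP buffer (100 mM Tris pH 7.5, 80 mM KCl, 4 mM MgCl2), without ligand or with the indicated ligand. Median apparent KD per design.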
# 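Also: bound reporter read as fluorescence of individual clusters on recovered sequencing chips by microscopy, with normalized cluster intensities fitted with a binding model.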
row,Sequence,apparent KD of K4 kissing-loop reporter [nM]
1,AGAACUGUCUGAGAUACCAGCCAAGGAGUGAUGUUCCGGCUCGACGAAACGUCGAGCCAUGGCCCUUGGCAGCUCAGACAGUUCA [Omei KL Theo B SS A v2],116
2,UUAUAUUUUAUAUUUAGUAGAGCUCUAGCUCGAGGACCGGUACGGCCGCCACUCGAGUGAUGUUCGAGUGGAAGAGCUCUACAUU [AK3.1 EXC Tryptophan A],99.9
3,UCUGUUGUAUAUGAUACCAGCAGUGAGAGAUGAGAAGUAUAGUGAUGUUAUAUGAGUGAAUGCCCUUGGCAGCGUGUGCGUGUGG [SSTheophylB.aD],112
4,UGUAUGUGAUUUGAUACCAGACCAGCUGGUGGUACCUGAGUGAUGUUCGGGAUGGUUUGGGUCCCUUGGCAGCAAAUCGCAUACU [KL-SSTheoB20],144
5,AACGACUGGAUGAAUAACAUCUAGUCGAUUCGAGGACCGGUACGGCCGCCACUCGAGCUAACUGCGAGUGAUGUUCGAUAAUAAA [#OpenEnded 3],433
6,UUUAAACAUAGUGAUGUUAUGUAACAAUGACGAGGACCGGUACGGCCGCCACUCGAGAGAGAUAAUGAUAAAAUAAAUAAUUUUC [#09 K4 Tryptophan A Same State],111
7,GGUGUUGUUUGUGCUGUUUUCUUCGUUUCUCGAGGACCGGUACGGCCGCCACUCGAGUGAUGUUUGGGUAGCGAUGUUUGUUAGU [Bdazzled - #3 - Exc. Tryptophan A],287
8,GGCAGUGAUGUUGCCAGUGGCAGAUGCGAAGGAGCGCGGUGAGACGCAGGUAGGUCGCGCAUUGAAAUUGCUGUCACUAGAAUGC [whbob_Ex_Arginine_A_2t127],285
9,UGAUACCAGACUGAUACCAGCCACAGAGUCAAAGACUCUGAAAGGGAAACCAGUGAUGUUGGCCCUUGGCAGCAGUCUGGUAUCU [TheoBX 23 #SwitchBubble #StaticStem],412
10,UACUAUAGUGAUGUUAUAGAUAAACCAGAUACCAGUGUAACAUAACACCCUUGGCAGCUGAUAAGGGAAAGUAUAAAUGUGUAUU [AstrosSSTHe-A#3newdesignED],198
11,UGGUUAAGCAGUGAUGUUGCAAGUGAUGAUACCAGUUAAGAAGAGAACCCUUGGCAGCAUAAAGUGCGCUCUGAUGAGUGUGCUU [whbob_SS_Theo_A_w55],130
12,AGACUACCACACUGUCAAUAGACAGUGGACUAGGAUAUGCUGAUAAGCAGAAGGAGUGAUGUUCCCAGGUAGUCAAUAAAAUAAU [FmnAX 13 G28+C66],205
13,ACACUUUACGUAGGAUAUGCGACGAGUGAUGUUCGUCAGGCGGCUUUAGAUUAUACAAGCCGCCUAGCAGAAGGACGGGCAGUGU [Araar],157
14,AGAGUUAAUUAGUCUUUUUUCACAUUAAGUCAGGAUAUCGUAUUUUCGAGAAGGGACACAUGCUAGUGAUGUUAGCUAUUUCUCA [JR_Nu3_ExcFMNA_Sub020],103
15,ACGCGCGCGAGUGAUGUUCGGAGCGGCUGGCAGGAUAUGUAGCAAUGCAGAAGGGUCGUGGCGGUGGGCGCGCAAGCGGCUGCCG [#2 Exclusion - FMN A Attempt #12 (HarryS)],318
16,AGGUUUUGCGGAGGAUAUGCACUGAGGAGGAGAAUAUAGUGAUGUUAUAUAAGAGGAAGGAGAAGAGUAGAAGGCCGUGAGGUUU [SSFMNB.N],109

row,Sequence,apparent KD of K4 kissing-loop reporter [nM]
1,ACGAAUCCAGCGGCCGCCACUAUUCGAUGAGUGAUGUUUAGGAGUAGAUCAUACCGCCGUGGUAAUAGGACCGGGCUCUUUGUAG [theeternabot_exclusion_KL_Trp_B_36],129
2,CAUCACGCAAUCACGGAUGCAAGCAUUGAUACCAGAACCGAUUAUUUCCCUUGGCAGCAACACGGAGUGAUGUUCCUAGCAUAUA [theeternabot_sameState_KL_Theo_A_21],122
3,AGGAGCGUGCGAUGAAAAUCGCACGCUCCUCGAGGACCGGUACGGCCGCCACUCGCUCGCGCCGAGUGAUGUUCGGCCGGCGAAC [#2 Same State - Tryptophan A Attempt #8 (HarryS)],180
4,UUAGCUCUAUAGAGCAAGAGGUAUACUGAUACCAGAGGCUAUAGCCUCCCUUGGCAGCGGAACGAGUGAUGUUCGAAACCUCAUU [AK5 SS Theophylline A],898
5,CCUAUCUCAUACGAUACCAGUCAAUGAUAUUUUAUCAAUGCCAUCACCGAGUGAUGUUCGGACCCUUGGCAGCGUAUGGGAUAGG [whbob_Ex_Theo_B_sa101],212
6,CUCGUGGGUUUGAGAGGGCUUGUGGGAAGUAAGGAUAUUUAGGGAGGAAGAAGGUACUAUAGAAUAUAGUGAUGUUAUAUAUGGG [SSFMNA.Y],224
7,GCCGUACGCAUGGAUACCAGCAAUCAAACGUCAUGCGAAGUGAUGUUUCGCUUACGGUAGUGCCCUUGGCAGCCAUGCGUACGGC,124
8,AUUAAUAACAGAGGAUAUGCAUUAUUAUUAUUUUUAAAUAAUAAAUGCAGUGAUGUUGCAUAUUAAGCAGAAGGCUGAUUUAUUU [JR_SSFMNB_Sub011],516
9,AAAGGAUCAGAGAGUGAUGUUCUCUAAUAACGAGGACCGGUACGGCCGCCACUCGAAGAUCCAAAAGUCCUACGAAAAGUAGGAC [Omei inspired 7],69.3
10,AUUCGUUUAUGUGAUACCAGACUUUGCAGUGAUGUUGCAUUAAUUAAAGAUGUUUAGUUUGUCCCUUGGCAGCACUAUUUAUUUA [JR_SSTheophyB_Sub002],84.4
11,UGGAUAUAGUGAUGUUAUAUAGAGAUGGAUACCAGCAGAGAGAAUUGCCCUUGGCAGCCGAAAGAAGUAUCAUUAGAGAAGAAUG [ExTheophyl.Ai],180
12,AGUGACGUCGCGGCCGCCACUGAAAUGACAGUGAUGUUGUCAAAAGAAAGUGAUGUUAAGAAAUGCAGGACCGGGUGAUAGAAAA [semi-accidental],144
13,UGUUUUUACUGAAGGAGCGGCAAUUGAUACGUAGAUAUAGUGAUGUUAUAUAAGAUAGAGAGCCAGGUAGGUCGCAGAUUUUUUC [ExArgB.Y],201
14,UUUGGAUUGCGCUAAGAGUGCAAGCGCCAACGAGGACCGGUACGGCCGCCACUCGCGGAGGAGUCCAGUGAUGUUGGACGGCCCG [Orbile],222
15,GGUGUUGUUUGUGCUGUUUUCCUCGUUUCUCGAGGACCGGUACGGCCGCCACUCGAGUGAUGUUUGGGUAGCGAUCUUUGUUAGU [Bdazzled - #5 Exc. Tryptophan A],142
16,CGAUAUAAGAAUAUAUAUCUCUAUUCAGAAGGAGCGUGUUUGUACACAGGUAGGUCGCUGAAAUUUAAACUAGUGAUGUUAGACU [JR_SSArginiA_Sub002],878

# Same assay, conditions: Eterna round: R107; input ligand: none
row,Sequence,apparent KD of K4 kissing-loop reporter [nM]
1,UGUACCGAGUCAGGAUAUACCGUCGAAAGACGAAAUGGAGUGAUGUUCCUUAAACUGCGAAAGCAGGUAGAAGGGACUUGGUACU [FmnBS 30 #SwitchBubble #StaticStem #DoubleMagnetSystem],267
2,GGGUAUUACGGAGGAUAUGCACUGAGGAGGAGAAUAUAGUGAUGUUAUAUAAGAGGAAGGAGAAGAGUAGAAGGCCGUGGUGUUU [SSFMNB.J],170
3,GUCCCAGUGAUGUUGGUAGGCGGGCGGGAUACCAGCGAAGACUCACGCCCUUGGCAGCCCACAUAUCCCGCGUAGGGAUUAGCCC [Same State - Theophylline A (Freestyle 22)],656
4,AAAUAGCAGCAACGAGUGAUGUUCGACGAUACCAGCCUCGAUAGAGGCCCUUGGCAGCGUAAAUGAUCACAAAGCCAAGGGCUGC [#SwitchBubble 2],458
5,GGAUCCACCAGUGAUGUUGGAGAAAACUCCAAGGAUAUGACGAAAGUCAGAAGGUGGUAAUAAGACGUCAAAGACGUCGGAUCCA [FmnA 19 #SwitchBubble #K4Early],101
6,CGCAGUGAUGUUGCUUAUAUUCUUGGUUAACGAGGACCGGUACGGCCGCCACUCGAUUUCUAUCUAUUCCAGUGUUAAUUUGAGU [JR_ExcTryptoA_Sub005],419
7,GAGGAUUGAACGGCCGCCACUGCGCGCAGCUGCAAUCGAGUGAUGUUCCAUCAGUUGUCCAGUUCCAGGACCGGGUUCCGAUGCC [theeternabot_exclusion_KL_Trp_B_12],401
8,AUUUAUGUUUCGGCCGCCACUCCACGUACUCAGAGAGAGUGAUGUUCUUUUUAUUAACGUCUAUGGAGGACCGGGAAGAGGUGAG [theeternabot_exclusion_KL_Trp_B_37],930
9,UUUUAUUAGUAGUGAUGUUACUAAACUGAAGGAGCGAGAUUUAACUCAGGUAGGUCGCAGAAAAUCAAUUAAUUUAUAAAUUAAA [JR_SSArginiA_Sub011],99.8
10,UAAAUUAUCUGAAGGAGCGUGAAAUAAUAUUAAACAUAACAACCCAGUGAUGUUGGGUUAUCACAGGUAGGUCGCAGAUGUAGAU [Same State Arginie B GF 24],98
11,AGAACUGUCUGAGAUACCAGCCAAGGAGUGAUGUUCCGGCUCGACGAAACGUCGAGCCAUGGCCCUUGGCAGCUCAGACAGUUCA [Omei KL Theo B SS A v2],195
12,UUAUAUUUUAUAUUUAGUAGAGCUCUAGCUCGAGGACCGGUACGGCCGCCACUCGAGUGAUGUUCGAGUGGAAGAGCUCUACAUU [AK3.1 EXC Tryptophan A],110
13,UCUGUUGUAUAUGAUACCAGCAGUGAGAGAUGAGAAGUAUAGUGAUGUUAUAUGAGUGAAUGCCCUUGGCAGCGUGUGCGUGUGG [SSTheophylB.aD],94
14,UGUAUGUGAUUUGAUACCAGACCAGCUGGUGGUACCUGAGUGAUGUUCGGGAUGGUUUGGGUCCCUUGGCAGCAAAUCGCAUACU [KL-SSTheoB20],164
15,AACGACUGGAUGAAUAACAUCUAGUCGAUUCGAGGACCGGUACGGCCGCCACUCGAGCUAACUGCGAGUGAUGUUCGAUAAUAAA [#OpenEnded 3],390
16,UUUAAACAUAGUGAUGUUAUGUAACAAUGACGAGGACCGGUACGGCCGCCACUCGAGAGAGAUAAUGAUAAAAUAAAUAAUUUUC [#09 K4 Tryptophan A Same State],118
17,GGUGUUGUUUGUGCUGUUUUCUUCGUUUCUCGAGGACCGGUACGGCCGCCACUCGAGUGAUGUUUGGGUAGCGAUGUUUGUUAGU [Bdazzled - #3 - Exc. Tryptophan A],373
18,GGCAGUGAUGUUGCCAGUGGCAGAUGCGAAGGAGCGCGGUGAGACGCAGGUAGGUCGCGCAUUGAAAUUGCUGUCACUAGAAUGC [whbob_Ex_Arginine_A_2t127],283
19,UGAUACCAGACUGAUACCAGCCACAGAGUCAAAGACUCUGAAAGGGAAACCAGUGAUGUUGGCCCUUGGCAGCAGUCUGGUAUCU [TheoBX 23 #SwitchBubble #StaticStem],493
20,UACUAUAGUGAUGUUAUAGAUAAACCAGAUACCAGUGUAACAUAACACCCUUGGCAGCUGAUAAGGGAAAGUAUAAAUGUGUAUU [AstrosSSTHe-A#3newdesignED],228
21,UGGUUAAGCAGUGAUGUUGCAAGUGAUGAUACCAGUUAAGAAGAGAACCCUUGGCAGCAUAAAGUGCGCUCUGAUGAGUGUGCUU [whbob_SS_Theo_A_w55],146

# From the supplement of paper PMC9170038
